{"source": "paper doi:10.1101/2021.03.12.435194", "about": "“Antibody evasion by the Brazilian P.1 strain of SARS-CoV-2” (bioRxiv, 2021)", "binders": {"B1": {"name": "EY6A Fab (Fab, V domains shown)", "VH": "EVQLVESGGGVVQPGRSLRLSCAASAFTFSSYDMHWVRQAPGKGLEWVAVISYDGSNKYYADSVKGRFTISRDNSKNTLYLQMNSLRAEDTAVYYCAKDGGKLWVYYFDYWGQGTLVTVSS", "VL": "not shown"}}, "molecular_target": "T1, WT RBD (Wuhan) (SARS-CoV-2, Wuhan (RBD identical in …, UniProt P0DTC2))", "T1 construct": "also called Wuhan RBD; native RBD", "experiment": "crystal structure", "conditions": "both partners purified"}
{"binder": "B1", "values": [{"measurement": "binding result", "value": "binds"}]}
